In patent publication US20220177577A1:

B1: CK6-SET0207 (antibody, V domains shown)
VH: QVQLVQSGAAVKKPGESLKISCKGSGYRFTSYWIGWVRQMPGKGLEWMGIIYPGDSDTRYSPSFQGQVTISAGKSISTAYLQWSSLKASDTAMYYCARHGRGYNGYEGAFDIWGQGTMVTVSS
VL: AIQLTQSPSSLSASVGDRVTITCRASQGISSALAWYQQKPGKAPKLLIYDASSLESGVPSRFSGSGSGTDFTLTISSLQPEDFATYYCQQFNSYPLTFGGGTKVEIK
modifications: here or on the partner: SET0207 payload ('Non-cleavable natural') conjugated, Fc modification D265C H435A, DAR 2.0
B2: CK6 S239C-D4 (antibody, V domains shown)
VH: B1 VH
VL: B1 VL
modifications: here or on the partner: calicheamicin (D4) conjugated, Fc modification S239C, DAR 1.72
B3: CK6 S239C-PBD (antibody, V domains shown)
VH: B1 VH
VL: B1 VL
modifications: here or on the partner: PBD (DNA cross linker) conjugated, Fc modification S239C, DAR 1.7
B4: CK6 S239C-DM (antibody, V domains shown)
VH: B1 VH
VL: B1 VL
modifications: here or on the partner: duocarmycin (DM) conjugated, Fc modification S239C, DAR 1.65
B5: CK6 S239C-PNU (antibody, V domains shown)
VH: B1 VH
VL: B1 VL
modifications: here or on the partner: PNU (DNA topoisomerase I/II inhibitor) conjugated, Fc modification S239C (printed S2390 in Table 4), DAR 1.4

Biological target: CD117 on Kasumi-1 cells and on primary human CD34+ bone marrow cells (human), P10721
Assay: cell-based or functional assay

Chain of CD117 on Kasumi-1 cells and on primary human CD34+ bone marrow cells (human), P10721 (P10721 26-976): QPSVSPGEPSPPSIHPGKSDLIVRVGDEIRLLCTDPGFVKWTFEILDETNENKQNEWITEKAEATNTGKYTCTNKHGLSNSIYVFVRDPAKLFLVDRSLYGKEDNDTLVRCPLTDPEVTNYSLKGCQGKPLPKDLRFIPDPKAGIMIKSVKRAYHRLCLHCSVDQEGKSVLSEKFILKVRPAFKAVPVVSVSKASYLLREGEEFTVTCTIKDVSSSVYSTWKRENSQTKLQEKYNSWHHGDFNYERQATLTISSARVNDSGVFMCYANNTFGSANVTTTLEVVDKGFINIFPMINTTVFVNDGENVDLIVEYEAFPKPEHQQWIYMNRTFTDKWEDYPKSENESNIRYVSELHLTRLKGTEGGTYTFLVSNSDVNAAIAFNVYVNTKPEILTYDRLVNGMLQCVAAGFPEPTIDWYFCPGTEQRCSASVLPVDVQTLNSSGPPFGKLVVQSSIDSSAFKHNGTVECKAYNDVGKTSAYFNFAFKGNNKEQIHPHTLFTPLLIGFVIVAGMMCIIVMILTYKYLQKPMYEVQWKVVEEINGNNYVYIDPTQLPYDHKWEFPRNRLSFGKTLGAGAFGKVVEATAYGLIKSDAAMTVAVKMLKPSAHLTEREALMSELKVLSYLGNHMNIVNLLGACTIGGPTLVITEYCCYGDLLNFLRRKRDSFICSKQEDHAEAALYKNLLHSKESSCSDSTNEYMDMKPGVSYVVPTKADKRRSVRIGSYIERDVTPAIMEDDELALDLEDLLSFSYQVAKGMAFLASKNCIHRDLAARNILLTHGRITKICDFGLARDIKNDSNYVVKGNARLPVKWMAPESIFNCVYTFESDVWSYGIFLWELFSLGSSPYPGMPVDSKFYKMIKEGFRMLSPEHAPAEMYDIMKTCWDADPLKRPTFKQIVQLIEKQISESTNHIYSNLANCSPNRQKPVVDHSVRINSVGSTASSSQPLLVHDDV

B1 and B2 are the same in % Efficacy, in vitro Kasumi cell killing assay: 0% for the first, 0% for the second.

First: B3
Second: B4
The % Efficacy, in vitro Kasumi cell killing assay of the first is higher: 60.7% for the first, 0% for the second.

B5 showed a % Efficacy, in vitro Kasumi cell killing assay of 85.7%.

Going from B1 to B2, the % Efficacy, in vitro hCD34 cell killing assay rises from 9.18% to 52.3%.

Compared with B3, B4 is lower in % Efficacy, in vitro hCD34 cell killing assay: 97.3% for the first, 66.2% for the second.

With B5 the % Efficacy, in vitro hCD34 cell killing assay was 74.4%.
